B1: 4-1BB IgG (SAP3.28 IgG), anti-hu4-1BB chimeric antibody (antibody, V domains shown)
VH: QVQLQESGPGLVRPSQTLSLTCTVSGFSLTSYGVHWVRQPPGRGLEWIGVIWRGGSTDYNAAFMSRLSITKDNSKSQVFFEMNSLQADDTAIYYCASPLGTSWDAMDYWGQGSLVTVSS
VL: DIQMTQSPSSLSASVGDRVTITCRASQDISNYLNWYQQKPGKAPKLLIYYKSRLHSGVPSRFSGSGSGTDYTLTISSLQPEDFATYYCQQGNTLPYTFGQGTKVEIK
notes: Bivalent IgG with the Fc region of murine IgG1, supplied by Prof; M. Glennie; also called SAP3.28 mAb; 4-1EE IgG
B2: urelumab (anti-hu4-1BB, BMS-663513) (antibody, V domains shown)
VH: QVQLQQWGAGLLKPSETLSLTCAVYGGSFSGYYWSWIRQSPEKGLEWIGEINHGGYVTYNPSLESRVTISVDTSKNQFSLKLSSVTAADTAVYYCARDYGPGNYDWYFDLWGRGTLVTVSS
VL: EIVLTQSPATLSLSPGERATLSCRASQSVSSYLAWYQQKPGQAPRLLIYDASNRATGIPARFSGSGSGTDFTLTISSLEPEDFAVYYCQQRSNWPPALTFGGGTKVEIK

What was measured:
[1] = biological target: hu4-1BB constitutively expressed on NF-kB-luc2/4-1BB Jurkat reporter cells (Promega, #JA2351) (human, UniProt Q07011 24-255); test: cell-based or functional assay
[2] = biological target: T1, recombinant His-tagged hu4-1BB (Sino Biological, #10014-H08H) (human, UniProt Q07011 24-186); test: titration ELISA on plastic immobilized His-tagged hu4-1BB, GAM-HRP
T1 construct: Bought; also called soluble hu4-1BB; not shown: His tag
T1 sequence (Q07011 24-186 limits assumed): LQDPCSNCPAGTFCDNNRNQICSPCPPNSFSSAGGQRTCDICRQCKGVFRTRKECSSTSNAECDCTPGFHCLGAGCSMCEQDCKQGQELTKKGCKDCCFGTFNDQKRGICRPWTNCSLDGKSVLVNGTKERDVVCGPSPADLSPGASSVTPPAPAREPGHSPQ

hu4-1BB constitutively expressed on NF-kB-luc2/4-1BB Jurkat reporter cells (Promega, #JA2351), sequence (Q07011 24-255): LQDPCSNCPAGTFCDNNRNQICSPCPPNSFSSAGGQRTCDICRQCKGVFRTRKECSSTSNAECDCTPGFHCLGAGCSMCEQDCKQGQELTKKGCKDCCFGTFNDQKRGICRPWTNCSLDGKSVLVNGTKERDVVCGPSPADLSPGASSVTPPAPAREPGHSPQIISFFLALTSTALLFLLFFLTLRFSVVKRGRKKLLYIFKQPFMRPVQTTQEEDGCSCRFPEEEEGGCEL

Binder | EC50 (read off the curve); NF-kB reporter, co-culture with CHO^huFcγRIIb [Cont.) c] [1] [nM] | EC50 (read off the curve) [2] [µg/mL] | EC50 (read off the curve); NF-kB reporter, co-culture with CHO [Cont.) c] [1] [nM]
B1 | ~1 | ~0.2 | 
B2 | ~0.06 |  | ~0.1

— patent US20240092942A1 (LEADARTIS S L, published 2024)
